Target: human MCU-EMRE fusion protein (hME) (human)

MICU1EF (MICU1 with D231A, E242K, D421A, E432K), N-terminally MBP-tagged (from UniProt Q9BPX6 34-476) (natural protein)
time constant of the decay of hME Ca2+ current on perfusion of 10 μM MICU1EF: 44 s

Reference: doi:10.1101/2021.11.15.468501
